The target of series [1] is T1, DVU1419 response regulator (Desulfovibrio vulgaris Hildenborough) (UniProt Q72C65).
T1 sequence: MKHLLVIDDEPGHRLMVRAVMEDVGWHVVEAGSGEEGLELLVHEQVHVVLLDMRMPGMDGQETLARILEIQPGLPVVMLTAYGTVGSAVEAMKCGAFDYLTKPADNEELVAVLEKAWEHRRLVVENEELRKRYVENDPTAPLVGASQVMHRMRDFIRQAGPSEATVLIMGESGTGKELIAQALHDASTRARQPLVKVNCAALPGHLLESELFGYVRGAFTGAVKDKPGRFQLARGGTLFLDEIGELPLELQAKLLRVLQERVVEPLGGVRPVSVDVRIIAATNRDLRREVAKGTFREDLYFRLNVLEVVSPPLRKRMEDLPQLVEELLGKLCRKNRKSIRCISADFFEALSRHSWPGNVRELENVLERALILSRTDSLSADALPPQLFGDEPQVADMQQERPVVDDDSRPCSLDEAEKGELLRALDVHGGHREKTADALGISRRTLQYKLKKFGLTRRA
The series can be described thus: EMSA. The note with it: EMSA: 10 mM Tris-HCl pH 7.5, 1 mM DTT, 50 mM KCl, 5 mM MgCl2, 25% glycerol, 1 ug/ml poly dI-dC, 50-100 fmol biotin-DNA, 25-30 C, 20 min.

Series [2] addresses T2, DVU0679 response regulator (Desulfovibrio vulgaris Hildenborough, UniProt Q72E99 1-488).
T2 sequence: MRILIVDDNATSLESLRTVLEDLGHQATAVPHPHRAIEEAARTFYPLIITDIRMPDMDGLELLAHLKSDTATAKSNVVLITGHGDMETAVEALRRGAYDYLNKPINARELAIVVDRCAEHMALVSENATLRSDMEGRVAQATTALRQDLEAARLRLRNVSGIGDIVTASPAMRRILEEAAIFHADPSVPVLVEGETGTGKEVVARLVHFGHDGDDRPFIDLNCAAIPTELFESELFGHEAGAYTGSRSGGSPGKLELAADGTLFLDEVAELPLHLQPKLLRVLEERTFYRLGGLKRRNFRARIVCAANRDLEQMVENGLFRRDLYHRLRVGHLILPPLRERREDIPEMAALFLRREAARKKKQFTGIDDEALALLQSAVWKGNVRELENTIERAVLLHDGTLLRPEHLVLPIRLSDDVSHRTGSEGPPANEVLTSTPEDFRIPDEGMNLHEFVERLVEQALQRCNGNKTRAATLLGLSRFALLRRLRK
The series is described as follows: EMSA; EMSA: 10 mM Tris-HCl pH 7.5, 1 mM DTT, 50 mM KCl, 5 mM MgCl2, 25% glycerol, 1 ug/ml poly dI-dC, 50-100 fmol biotin-DNA, 25-30 C, 20 min. To be noted: protein: recombinant; tags: C-terminal V5-6xHis; chain copies: 2; label: 5'-biotin top strand; blunt.

Series [3] concerns the target T3, DVU0946 response regulator (Desulfovibrio vulgaris Hildenborough, UniProt Q72DI3 1-476).
T3 sequence: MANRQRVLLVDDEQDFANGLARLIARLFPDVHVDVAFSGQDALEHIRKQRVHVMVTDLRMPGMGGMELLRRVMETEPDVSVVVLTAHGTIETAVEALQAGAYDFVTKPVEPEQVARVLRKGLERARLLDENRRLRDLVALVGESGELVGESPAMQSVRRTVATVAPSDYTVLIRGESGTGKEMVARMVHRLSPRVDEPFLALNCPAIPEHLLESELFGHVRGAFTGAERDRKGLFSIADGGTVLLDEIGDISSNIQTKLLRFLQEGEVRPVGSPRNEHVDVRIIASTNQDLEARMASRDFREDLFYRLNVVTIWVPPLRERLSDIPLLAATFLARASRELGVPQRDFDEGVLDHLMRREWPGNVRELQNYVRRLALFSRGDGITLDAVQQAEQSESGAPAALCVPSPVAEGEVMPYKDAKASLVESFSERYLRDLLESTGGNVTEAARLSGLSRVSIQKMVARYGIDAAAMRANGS
Described as above. The note with it: protein: recombinant; tags: C-terminal V5-6xHis; chain copies: 2; label: 5'-biotin top strand; blunt.

For series [4], the target named is T4, DVU0539 response regulator (Desulfovibrio vulgaris Hildenborough, UniProt Q72EN8 1-467).
T4 sequence: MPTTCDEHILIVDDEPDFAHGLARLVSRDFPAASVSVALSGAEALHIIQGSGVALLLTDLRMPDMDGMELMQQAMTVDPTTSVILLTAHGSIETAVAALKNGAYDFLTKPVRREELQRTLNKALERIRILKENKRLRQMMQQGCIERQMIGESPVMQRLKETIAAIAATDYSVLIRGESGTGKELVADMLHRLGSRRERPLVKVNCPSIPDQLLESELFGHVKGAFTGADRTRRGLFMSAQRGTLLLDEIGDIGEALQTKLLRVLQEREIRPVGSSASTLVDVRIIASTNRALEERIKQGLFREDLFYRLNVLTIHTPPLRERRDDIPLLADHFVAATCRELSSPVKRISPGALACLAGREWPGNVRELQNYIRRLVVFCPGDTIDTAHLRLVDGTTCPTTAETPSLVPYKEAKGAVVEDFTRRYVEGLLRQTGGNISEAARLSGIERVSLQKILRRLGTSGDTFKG
The series is described as above. The note with it: protein: recombinant; tags: C-terminal V5-6xHis; chain copies: 2; label: 5'-biotin top strand; blunt.

Series [5] has as its target T5, DVU0118 response regulator (Desulfovibrio vulgaris Hildenborough, UniProt Q72FU5 1-454).
T5 sequence: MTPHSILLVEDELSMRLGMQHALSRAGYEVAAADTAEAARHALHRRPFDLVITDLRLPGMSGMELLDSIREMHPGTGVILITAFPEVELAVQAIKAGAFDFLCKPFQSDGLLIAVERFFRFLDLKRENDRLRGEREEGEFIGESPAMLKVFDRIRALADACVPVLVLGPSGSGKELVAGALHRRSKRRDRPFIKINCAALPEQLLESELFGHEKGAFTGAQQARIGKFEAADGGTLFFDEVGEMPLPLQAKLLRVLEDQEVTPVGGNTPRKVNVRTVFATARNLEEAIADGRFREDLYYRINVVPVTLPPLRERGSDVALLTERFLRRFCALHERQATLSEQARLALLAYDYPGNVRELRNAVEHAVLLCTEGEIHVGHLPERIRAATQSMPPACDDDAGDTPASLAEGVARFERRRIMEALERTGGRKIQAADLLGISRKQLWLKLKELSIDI
The series is described as above. To be noted: protein: recombinant; tags: C-terminal V5-6xHis; chain copies: 2; label: 5'-biotin top strand; blunt.

For series [6], the target named is T5, DVU0118 response regulator. The series is described as follows: EMSA; 10 mM Tris-HCl pH 7.5, 1 mM DTT, 50 mM KCl, 5 mM MgCl2, 25% glycerol, 1 ug/ml poly dI-dC, 50-100 fmol biotinylated DNA, 25-30 C, 20 min. To be noted: protein: recombinant; tags: C-terminal V5-6xHis; chain copies: 2; label: 5'-biotin top strand.
Series [7] addresses T6, DVU1063 response regulator (Desulfovibrio vulgaris Hildenborough, UniProt Q72D66 1-479).
T6 sequence: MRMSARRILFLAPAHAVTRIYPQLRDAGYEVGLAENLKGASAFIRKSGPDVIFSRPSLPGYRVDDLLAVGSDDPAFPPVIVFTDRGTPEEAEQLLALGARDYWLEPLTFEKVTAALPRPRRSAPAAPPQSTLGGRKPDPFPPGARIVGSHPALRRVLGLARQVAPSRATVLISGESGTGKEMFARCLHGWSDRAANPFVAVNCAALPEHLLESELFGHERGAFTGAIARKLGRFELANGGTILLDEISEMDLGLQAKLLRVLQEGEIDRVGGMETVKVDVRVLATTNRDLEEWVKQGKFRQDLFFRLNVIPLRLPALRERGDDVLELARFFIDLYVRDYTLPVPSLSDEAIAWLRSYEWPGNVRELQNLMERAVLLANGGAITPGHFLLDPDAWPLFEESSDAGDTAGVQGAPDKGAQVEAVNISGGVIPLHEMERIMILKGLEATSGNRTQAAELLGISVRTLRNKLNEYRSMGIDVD
The series can be described thus: EMSA; EMSA: 10 mM Tris-HCl pH 7.5, 1 mM DTT, 50 mM KCl, 5 mM MgCl2, 25% glycerol, 1 ug/ml poly dI-dC, 50-100 fmol biotin-DNA, 25-30 C, 20 min. The note with it: protein: recombinant; tags: C-terminal V5-6xHis; chain copies: 2; label: 5'-biotin top strand; blunt.

For series [8], the target named is T7, DVU2394 response regulator (Desulfovibrio vulgaris Hildenborough, UniProt Q729F7 1-463).
T7 sequence: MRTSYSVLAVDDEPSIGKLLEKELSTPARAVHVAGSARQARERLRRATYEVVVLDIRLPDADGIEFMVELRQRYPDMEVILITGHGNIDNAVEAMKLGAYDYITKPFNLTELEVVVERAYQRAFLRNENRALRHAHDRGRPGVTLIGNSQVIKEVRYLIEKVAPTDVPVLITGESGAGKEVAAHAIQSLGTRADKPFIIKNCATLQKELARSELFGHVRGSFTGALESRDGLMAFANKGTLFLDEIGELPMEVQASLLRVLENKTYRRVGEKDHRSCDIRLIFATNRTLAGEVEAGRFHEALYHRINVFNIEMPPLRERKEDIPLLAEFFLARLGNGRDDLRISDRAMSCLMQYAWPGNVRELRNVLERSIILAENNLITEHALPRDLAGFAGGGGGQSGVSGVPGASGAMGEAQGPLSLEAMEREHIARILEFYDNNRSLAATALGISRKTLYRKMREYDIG
The series is described as follows: EMSA; 10 mM Tris-HCl pH 7.5, 1 mM DTT, 50 mM KCl, 5 mM MgCl2, 25% glycerol, 1 ug/ml poly dI-dC, 50-100 fmol biotinylated DNA, 25-30 C, 20 min. To be noted: protein: recombinant; tags: C-terminal V5-6xHis; chain copies: 2; label: 5'-biotin top strand.

The target of series [9] is T8, DVU1419 response regulator (Desulfovibrio vulgaris Hildenborough, UniProt Q72C65 1-459).
T8 sequence: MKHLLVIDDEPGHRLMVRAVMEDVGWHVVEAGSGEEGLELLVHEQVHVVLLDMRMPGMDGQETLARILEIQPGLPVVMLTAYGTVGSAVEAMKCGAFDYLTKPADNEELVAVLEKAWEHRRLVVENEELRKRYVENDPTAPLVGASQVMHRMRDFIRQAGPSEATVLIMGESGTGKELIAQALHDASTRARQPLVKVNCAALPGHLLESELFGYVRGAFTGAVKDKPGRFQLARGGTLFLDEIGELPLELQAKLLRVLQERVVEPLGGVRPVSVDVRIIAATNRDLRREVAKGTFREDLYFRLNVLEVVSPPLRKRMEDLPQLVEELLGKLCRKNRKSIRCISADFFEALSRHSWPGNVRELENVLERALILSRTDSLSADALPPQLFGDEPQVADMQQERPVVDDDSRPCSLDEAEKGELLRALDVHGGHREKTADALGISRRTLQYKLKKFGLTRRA
The series can be described thus: EMSA; EMSA: 10 mM Tris-HCl pH 7.5, 1 mM DTT, 50 mM KCl, 5 mM MgCl2, 25% glycerol, 1 ug/ml poly dI-dC, 50-100 fmol biotin-DNA, 25-30 C, 20 min. The note with it: protein: recombinant; tags: C-terminal V5-6xHis; chain copies: 2; label: 5'-biotin top strand; blunt.

As for “GTCGGCGATTTCCATGAAGACTCCGGTGGTGTCTGGCGGGACATGAAAGAACTGTGCCGAAGGGTGACACCCCGGCAGATGCTGATGCCGGGTGCGCCACCACAGGCCAGCCCTTGCACCATGTCGCATCGCAAGGTCTCTGCGTTGCCTCGCAACGCGGTGCCGTGCACCATGAATGTGCAAACGATGGCACACAACGCCACGGCGTGCAATAAGATGCACACCACCTGCACATATCAAGCCTCATGTGAAGGAAAAGGACGGC (double strand) [DVU1418 upstream]”, in series [1], the binding result is on record as “binds”.

B1: DVU0677 motif wt (dsDNA)
DNA 1: AATCGCACGCCGTGCGTATTCGCACGTGCTTTTCCG
DNA 2: CGGAAAAGCACGTGCGAATACGCACGGCGTGCGATT
For the molecule B1, in series [2], the binding result was “binds”.

B2: DVU0943 motif wt (dsDNA)
DNA 1: AGGTTTACGATGCAAAGTGATGTTTGCAGCTTGCCGAG
DNA 2: CTCGGCAAGCTGCAAACATCACTTTGCATCGTAAACCT
B2: the binding result in [3] and in series [4] was “binds” each time.

B3: DVU0123 motif wt (dsDNA)
DNA 1: CGAACAGGAACATGTTCCCTCAAAGGAACATCGTTGGTGGAA
DNA 2: TTCCACCAACGATGTTCCTTTGAGGGAACATGTTCCTGTTCG
With B3, the binding result in series [5] is listed as “binds”.

B4: DVU0123 motif mut (dsDNA)
DNA 1: CGAACAGGAACTTCTTGCCTCAAAGGTACGTCGTTGGTGGAA
DNA 2: TTCCACCAACGACGTACCTTTGAGGCAAGAAGTTCCTGTTCG
As for B4, the binding result in [6] is listed as “no binding”.

B5: DVU1032 motif wt (dsDNA)
DNA 1: GGCATGGTCGGGCGGCAGTTTTTTCCTGTATCCTG
DNA 2: CAGGATACAGGAAAAAACTGCCGCCCGACCATGCC
Take B5: in [7], the binding result is recorded as “binds”.

B6: DVU2405 motif mut (dsDNA)
DNA 1: TCCAGCCATCTATGTTTTTTCGTGACTATGTTGAAGTTCGACCCAA
DNA 2: TTGGGTCGAACTTCAACATAGTCACGAAAAAACATAGATGGCTGGA
Consider B6, for which, in series [8], the binding result is on record as “no binding”.

B7: DVU1418 motif wt (dsDNA)
DNA 1: GCCGTGGCGTTGTGTGCCATCGTTTGCACATTCATGGTGC
DNA 2: GCACCATGAATGTGCAAACGATGGCACACAACGCCACGGC
As for B7, the binding result in series [9] is “binds”.

B8: DVU1418 motif mut (dsDNA)
DNA 1: GCCGTGGCGTTGTATGCCATCGTTTGCTCGTTCATGGTGC
DNA 2: GCACCATGAACGAGCAAACGATGGCATACAACGCCACGGC
For the molecule B8, the binding result in series [9] is recorded as “no binding”.

For the origin of these results see PMC3333781, “Systematic mapping of two component response regulators to gene targets in a model sulfate reducing bacterium”.
